{"source": "paper PMC8950220", "about": "“Impact of Fluorinated Ionic Liquids on Human Phenylalanine Hydroxylase—A Potential Drug Delivery System” (Nanomaterials, 2022)", "key": {"[1]": {"molecular_target": "the molecule itself", "experiment": "native gel or EMSA; blue native PAGE, NativePAGE 4-16% Bis-Tris gel; hPAH with 0-1.2% v/v [N1112(OH)][C4F9SO3], with and without L-Phe"}, "[2]": {"molecular_target": "the molecule itself", "experiment": "SEC; Superdex 200 Increase 10/300, 20 mM HEPES pH 7.0, 200 mM NaCl, 277.15 K; tetramer fraction isolated"}, "[3]": {"molecular_target": "the molecule itself", "experiment": "SAXS; batch mode, 0.9 mg/mL hPAH in 20 mM HEPES pH 7.0, 200 mM NaCl, 0-1.2% v/v [N1112(OH)][C4F9SO3], no L-Phe; volume fractions of oligomers fitted with OLIGOMER"}}, "data": [{"protein": "human phenylalanine hydroxylase (enzyme, UniProt P00439 1-452, looked up, human phenylalanine hydroxylase (hPAH), recombinant full-length, each subunit 52 kDa; No step that cleaves the tag is described, and the enzymatic assays name the protein His6-hPAH, so the tag and linker were probably kept; The tetramer fraction from SEC was the starting material of all assays; also called hPAH; His6-hPAH; source: E. coli Top10, purified (Ni-NTA, SEC on Superdex 200 Increase; …)) MSTAVLENPGLGRKLSDFGQETSYIEDNCNQNGAISLIFSLKEEVGALAKVLRLFEENDVNLTHIESRPSRLKKDEYEFFTHLDKRSLPALTNIIKILRHDIGATVHELSRDKKKDTVPWFPRTIQELDRFANQILSYGAELDADHPGFKDPVYRARRKQFADIAYNYRHGQPIPRVEYMEEEKKTWGTVFKTLKSLYKTHACYEYNHIFPLLEKYCGFHEDNIPQLEDVSQFLQTCTGFRLRPVAGLLSSRDFLGGLAFRVFHCTQYIRHGSKPMYTPEPDICHELLGHVPLFSDRSFAQFSQEIGLASLGAPDEYIEKLATIYWFTVEFGLCKQGDSIKAYGAGLLSSFGELQYCLSEKPKLLPLELEKTAIQNYTVTEFQPLYYVAESFNDAKEKVRNFAATIPRPFSVRYDPYTQRIEVLDNTQQLKILADSINSEIGILCSALQKIK", "values": [{"measurement": "stoichiometry N", "setting": "[1]", "result": 8}, {"measurement": "stoichiometry N", "setting": "[2]", "result": 4}, {"measurement": "stoichiometry N", "setting": "[3]", "result": 2}]}]}
